Experiments:
H3S10phG12P (1–20) = H3S10phG12P (1–20) (UniProt P68431 2-21, G12P, phosphoserine at 10); test: fluorescence polarisation
H3S10phK14acG12P (1–20) = H3S10phK14acG12P (1–20) (UniProt P68431 2-21, G12P, phosphoserine at 10; acetyl-lysine at 14); test: fluorescence polarisation

B1: 14-3-3ζ (natural protein)
chain: MDKNELVQKAKLAEQAERYDDMAACMKSVTEQGAELSNEERNLLSVAYKNVVGARRSSWRVVSSIEQKTEGAEKKQQMAREYREKIETELRDICNDVLSLLEKFLIPNASQAESKVFYLKMKGDYYRYLAEVAAGDDKKGIVDQSQQAYQEAFEISKKEMQPTHPIRLGLALNFSVFYYEILNSPEKACSLAKTAFDEAIAELDTLSEESYKDSTLIMQLLRDNLTLWTSDTQGDEAEAGEGGEN
For B1, the Kd (H3S10phG12P (1–20)) was 19.9 µM and the Kd (H3S10phK14acG12P (1–20)) was 40 µM.

From PMC3182529 (Cell cycle (Georgetown, Tex.), 2008)
